Where no end group is shown, it is not given here.
Biological target: T1, pVIP receptor (Sus scrofa, UniProt Q28992)
T1 sequence (Q28992 32-458): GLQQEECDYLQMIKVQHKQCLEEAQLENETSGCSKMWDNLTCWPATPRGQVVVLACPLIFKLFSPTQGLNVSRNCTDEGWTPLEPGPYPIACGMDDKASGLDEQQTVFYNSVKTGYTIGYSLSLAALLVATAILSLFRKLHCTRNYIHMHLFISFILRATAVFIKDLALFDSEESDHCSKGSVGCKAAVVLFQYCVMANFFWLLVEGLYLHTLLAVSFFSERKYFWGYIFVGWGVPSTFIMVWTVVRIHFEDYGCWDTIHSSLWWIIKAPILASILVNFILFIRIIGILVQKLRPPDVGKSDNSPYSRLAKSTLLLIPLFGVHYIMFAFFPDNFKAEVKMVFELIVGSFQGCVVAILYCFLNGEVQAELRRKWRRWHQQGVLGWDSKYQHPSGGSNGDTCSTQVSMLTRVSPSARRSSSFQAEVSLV
Assay: cAMP assay in 293/VIPR cells expressing the pVIP receptor
Format: cell-based, porcine
Details: for intracellular [cAMP]: 293/VIPR cells, 45 min at 37° C.
Protocol: Briefly, a double stranded counterpart to Sequence ID#i, externally modified to incorporate convenient restriction sites, was integrated into the pRc/CMV vector and recombinantly expressed in 293 cells. The cDNA transcript included the signal peptide region of the native transcript facilitating proper orientation and integration into the transfected cell membrane. […] The cAMP level was also measured upon exposure of the transfected cells in response to the addition of secretin, and GHRH, two peptides closely related to VIP.
After removing the solution, 0.5 ml of 60% ethanol was added to lyse the cells in each well. An aliquot was taken, dried in vacUo, and the level of cAMP was determined.
Cells were washed twice with the incubation buffer (Dulbecco's modified Eagle's medium containing 0.5 mM 1-methyl-3-isobutylxanthine and 1 mg/ml BSA). […] After removing the buffer, 0.5 ml of 60% ethanol was added to lyse the cells in each well.

porcine secretin (HSDGTFTSELSRLRDSARLQRLLQGLV; ends and bridges not checked; UniProt P63298 33-59, looked up) [peptide hormone closely related to VIP, commercially available from Peninsula Laboratories]
intracellular [cAMP] (hormone concentration 10^-6 M): 440 pmoles/10^5 cells
intracellular [cAMP] (hormone concentration 10^-7 M): 240 pmoles/10^5 cells
intracellular [cAMP] (hormone concentration 10^-8 M): 185 pmoles/10^5 cells
intracellular [cAMP] (hormone concentration 10^-9 M): 28 pmoles/10^5 cells
intracellular [cAMP] (hormone concentration 10^-10 M): < 10 pmoles/10^5 cells
intracellular [cAMP] (hormone concentration 10^-11 M): < 10 pmoles/10^5 cells

GHRH: growth hormone-releasing hormone, a peptide closely related to VIP
intracellular [cAMP] (hormone concentration 10^-6 M): 400 pmoles/10^5 cells
intracellular [cAMP] (hormone concentration 10^-7 M): 404 pmoles/10^5 cells
intracellular [cAMP] (hormone concentration 10^-8 M): 400 pmoles/10^5 cells
intracellular [cAMP] (hormone concentration 10^-9 M): 105 pmoles/10^5 cells
intracellular [cAMP] (hormone concentration 10^-10 M): < 10 pmoles/10^5 cells
intracellular [cAMP] (hormone concentration 10^-11 M): < 10 pmoles/10^5 cells

porcine vasoactive intestinal polypeptide [VIP]
intracellular [cAMP] (hormone concentration 10^-6 M): 420 pmoles/10^5 cells
intracellular [cAMP] (hormone concentration 10^-7 M): 440 pmoles/10^5 cells
intracellular [cAMP] (hormone concentration 10^-8 M): 404 pmoles/10^5 cells
intracellular [cAMP] (hormone concentration 10^-9 M): 64 pmoles/10^5 cells
intracellular [cAMP] (hormone concentration 10^-10 M): 15 pmoles/10^5 cells
intracellular [cAMP] (hormone concentration 10^-11 M): < 10 pmoles/10^5 cells
intracellular cAMP levels upon exposure (in words) (transfected 293 cells expressing the protein of Sequence ID#2): intracellular increase in cAMP levels
